Measured values from patent US20030100060A1.

Experiments:
[1] = molecular target: Inactivated Venezuelan equine encephalitis (VEE) whole virus antigen, strain TC-83 (Venezuelan equine encephalitis virus, strain TC-83) (UniProt P05674); assay: ELISA, HB2151 whole cell lysate, wells with and without VEE whole virus antigen
[2] = molecular target: Inactivated Venezuelan equine encephalitis (VEE) whole virus antigen, strain TC-83 (Venezuelan equine encephalitis virus, strain TC-83) (UniProt P05674); assay: ELISA of whole cell lysates on VEE antigen (FIG. 10)
[3] = molecular target: Inactivated Venezuelan equine encephalitis (VEE) whole virus antigen, strain TC-83 (Venezuelan equine encephalitis virus, strain TC-83) (UniProt P05674); assay: ELISA, […], in triplicate, […]
[4] = molecular target: Inactivated Venezuelan equine encephalitis (VEE) whole virus antigen, strain TC-83 (Venezuelan equine encephalitis virus, strain TC-83) (UniProt P05674)
[5] = molecular target: Inactivated Venezuelan equine encephalitis (VEE) whole virus antigen, strain TC-83 (Venezuelan equine encephalitis virus, strain TC-83) (UniProt P05674); remark: listed apart in the source

UniProt P05674, sequence (P05674 335-757 limits assumed): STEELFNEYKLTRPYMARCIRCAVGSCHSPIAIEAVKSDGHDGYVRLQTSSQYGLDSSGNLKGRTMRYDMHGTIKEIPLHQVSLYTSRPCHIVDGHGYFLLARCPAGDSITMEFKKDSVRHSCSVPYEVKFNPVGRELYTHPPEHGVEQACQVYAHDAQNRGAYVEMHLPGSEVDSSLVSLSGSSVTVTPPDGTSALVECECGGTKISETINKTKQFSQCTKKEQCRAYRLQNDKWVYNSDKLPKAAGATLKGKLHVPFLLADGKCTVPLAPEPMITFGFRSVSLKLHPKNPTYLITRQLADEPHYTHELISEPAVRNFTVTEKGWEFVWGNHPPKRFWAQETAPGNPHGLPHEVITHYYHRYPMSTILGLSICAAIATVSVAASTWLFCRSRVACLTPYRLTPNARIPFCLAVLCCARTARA

Binder | fold retention, with VEE antigen over without [1] [fold] | fold ELISA reactivity against the parental A116 clone [2] [fold] | fold ELISA reactivity against the original A116 clone [3] [fold] | fold absorbance, wells with VEE antigen over wells without [4] [fold] | fold absorbance over the HB2151 negative control lysate [5] [fold]
MA116-15 ScFv antibody (mutagenized, repaired A116) (scFv) scFv: MAQVQLQESGPELVKPGASVKISCKASGYTFTDYHVHWVKGKPGQGLEWIGMTYPGFDNTNYSETFKGKATLTVDTSSNTVYMQLSSLTSEDTAVYFCARGVGLDYWGQGTTVTVSSGGGGSGGGGSGGGGSDIELTQSPNSLSTSIGDRIRITCKASQDVDTAVGWYQQRPGQSPKLLIFWSSTRHTGVPDRFTGSGSGTDFTLTISNVQSEDLADYFCHQYSSYPFTFGSGTKLEIKRAAAGAPVPYPDPLEPRAA | > 2.5 | > 4 | 4 | – | –
MA116-4 ScFv antibody (scFv) scFv: MAQVQLQESGPELVKPGASVKISCKASGYTFTDYHVHWVKGKPGQGLEWIGMTYPGFDNTNYSETFKGKATLTVDTSSNTVYMQLSSLTSEDTAVYFCARGVGLDYWGQGTTVTVSSGGGGSGGGGSGGGGSASSSLSLSNSLSTSIGDRIRITCKASQDVDTAVGWYQQRPGQSPKLLIFWSSTRHTGVPDRFTGSGSGTDFTLTISNVQSDDLADYFCHQYSSYPFTFGSGTKLEIKRAAAGAPVPYPDPLEPRAA | > 2.5 | – | – | – | –
MA116-6 ScFv antibody (scFv) scFv: MAQVQLQESGPELVKPGASVKISCKASGYTFTDYHVHWVKGKPGQGLEWIGMTYPGFDDTNYSETFKGKATLTVDTSSNTVYMQLSSLTSEDTAVYFCARGVGLDYWGQGTTVTVSSGGGGSGGGGSGGGGSDSSSLVSKFVSTSIGDRIRITCKASQDVDTAVGWYQQRPGQSPKLLIFWSSTRHTGVPDRFTGSGSGTDFTLTISNVQSEDLADYFCHQYSSYPFTFGSGTKLEIKRAAAGAPVPYPDPLEPRAA | > 2.5 | – | – | – | –
A116 ScFv antibody (recombinant single chain variable fragment cloned from hybridoma 1A4A1) (scFv) scFv: MAQVQLQESGPELVKPGASVKISCKASGYTFTDYHVHWVKGKPGQGLEWIGMTYPGFDNTNYSETFKGKATLTVDTFSTTVYMQLSSLTSEDTVVYFCARGVGLDYWGQGTTVTVSSGGGGSGGGGSGGGGSDSSSLVSKFVSTSIGDRIRITCKASQDVDTAVGWYQQRPGQSPKLLIFWSSTRHTGVPDRFTGSGSGTDFTLTISNVQSEDLADYFCHQYSSHPFTFGSGTKLEIKRAAAGAPVPYPDPLEPRAA | – | – | – | > 2 | 4
